From publication PMC9482650, “Quantitative fragmentomics allow affinity mapping of interactomes” (Nature Communications, 2022)

Columns and labels:
Assay in all cases: holdup assay
Parameters in all cases: key: below the threshold = too weak to quantify, mostly under pKd 3.1 to 4
Inadl_3, Q8NI35 = biological target: Inadl_3, Q8NI35
LNX2_3, Q8N448 = biological target: T1, LNX2_3, Q8N448
T1 sequence (Q8N448 463-564, limits assumed, looked up): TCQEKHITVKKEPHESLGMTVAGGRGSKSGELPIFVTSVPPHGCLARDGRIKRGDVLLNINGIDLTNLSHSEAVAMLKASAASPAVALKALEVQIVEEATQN

NHERF4_2, Q86UT5 = biological target: NHERF4_2, Q86UT5
Chain of NHERF4_2, Q86UT5 (Q86UT5 220-308): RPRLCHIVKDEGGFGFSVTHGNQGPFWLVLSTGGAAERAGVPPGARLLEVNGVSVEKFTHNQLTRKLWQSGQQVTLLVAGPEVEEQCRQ

SNX27, Q96L92 = biological target: SNX27, Q96L92
CARD11, Q9BXL7 = biological target: T2, CARD11, Q9BXL7
T2 sequence (Q9BXL7 662-765, limits assumed, looked up): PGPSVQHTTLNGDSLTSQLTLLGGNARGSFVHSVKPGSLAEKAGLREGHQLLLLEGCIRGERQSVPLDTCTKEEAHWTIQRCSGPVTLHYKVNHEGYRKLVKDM

GRIP1_4, Q9Y3R0 = biological target: T3, GRIP1_4, Q9Y3R0
T3 sequence (Q9Y3R0 467-571, limits assumed, looked up): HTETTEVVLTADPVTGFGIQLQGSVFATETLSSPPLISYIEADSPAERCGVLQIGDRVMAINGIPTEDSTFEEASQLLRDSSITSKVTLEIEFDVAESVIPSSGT

ARHGEF11, O15085 = biological target: T4, ARHGEF11, O15085
T4 sequence (O15085 42-136, limits assumed, looked up): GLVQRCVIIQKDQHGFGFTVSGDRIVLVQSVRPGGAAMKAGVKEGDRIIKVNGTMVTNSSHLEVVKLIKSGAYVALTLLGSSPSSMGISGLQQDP

PARD3_3, Q8TEW0 = biological target: PARD3_3, Q8TEW0
Chain of PARD3_3, Q8TEW0 (Q8TEW0 582-685): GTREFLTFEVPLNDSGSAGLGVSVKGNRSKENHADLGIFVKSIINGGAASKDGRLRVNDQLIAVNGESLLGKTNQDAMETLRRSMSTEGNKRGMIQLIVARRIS

PDZD2_2, O15018 = biological target: T5, PDZD2_2, O15018
T5 sequence (O15018 329-429, limits assumed, looked up): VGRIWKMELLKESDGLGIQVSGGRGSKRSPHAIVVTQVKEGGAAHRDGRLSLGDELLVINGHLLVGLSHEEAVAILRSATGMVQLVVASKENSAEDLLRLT

GRIP2_6, Q9C0E4 = biological target: GRIP2_6, Q9C0E4
Chain of GRIP2_6, Q9C0E4 (Q9C0E4 648-740): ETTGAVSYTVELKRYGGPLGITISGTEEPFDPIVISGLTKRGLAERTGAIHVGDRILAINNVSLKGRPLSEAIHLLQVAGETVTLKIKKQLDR

PTPN13_1, Q12923 = biological target: T6, PTPN13_1, Q12923
T6 sequence (Q12923 1088-1188, limits assumed, looked up): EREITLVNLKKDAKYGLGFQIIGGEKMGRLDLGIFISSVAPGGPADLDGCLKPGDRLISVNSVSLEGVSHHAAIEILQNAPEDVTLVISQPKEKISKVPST

PDZRN3_1, Q9UPQ7 = biological target: T7, PDZRN3_1, Q9UPQ7
T7 sequence (Q9UPQ7 244-349, limits assumed, looked up): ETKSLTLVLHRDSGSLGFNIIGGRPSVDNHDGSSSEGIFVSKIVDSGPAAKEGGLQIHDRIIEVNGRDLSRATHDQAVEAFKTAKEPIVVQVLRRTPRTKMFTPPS

FRMPD1, Q5SYB0 = biological target: T8, FRMPD1, Q5SYB0
T8 sequence (Q5SYB0 52-145, limits assumed, looked up): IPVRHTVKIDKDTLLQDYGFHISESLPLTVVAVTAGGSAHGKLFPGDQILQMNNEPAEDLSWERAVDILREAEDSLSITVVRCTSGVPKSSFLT

MAGI2_5, Q86UL8 = biological target: MAGI2_5, Q86UL8
Chain of MAGI2_5, Q86UL8 (Q86UL8 915-1017): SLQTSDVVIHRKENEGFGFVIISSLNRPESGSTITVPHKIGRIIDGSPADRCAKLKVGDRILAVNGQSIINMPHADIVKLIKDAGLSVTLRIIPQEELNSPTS

MAGI1_2, Q96QZ7 = biological target: MAGI1_2, Q96QZ7
Chain of MAGI1_2, Q96QZ7 (Q96QZ7 456-580): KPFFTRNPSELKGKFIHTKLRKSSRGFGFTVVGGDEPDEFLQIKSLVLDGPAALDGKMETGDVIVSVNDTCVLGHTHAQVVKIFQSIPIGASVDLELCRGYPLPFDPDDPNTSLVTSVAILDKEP

RAPGEF6, Q8TEU7 = biological target: T9, RAPGEF6, Q8TEU7
T9 sequence (Q8TEU7 525-625, limits assumed, looked up): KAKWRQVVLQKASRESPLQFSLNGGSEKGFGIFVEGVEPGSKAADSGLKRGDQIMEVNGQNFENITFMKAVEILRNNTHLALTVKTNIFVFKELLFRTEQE

GORASP1, Q9BQQ3 = biological target: GORASP1, Q9BQQ3
Chain of GORASP1, Q9BQQ3 (Q9BQQ3 1-208): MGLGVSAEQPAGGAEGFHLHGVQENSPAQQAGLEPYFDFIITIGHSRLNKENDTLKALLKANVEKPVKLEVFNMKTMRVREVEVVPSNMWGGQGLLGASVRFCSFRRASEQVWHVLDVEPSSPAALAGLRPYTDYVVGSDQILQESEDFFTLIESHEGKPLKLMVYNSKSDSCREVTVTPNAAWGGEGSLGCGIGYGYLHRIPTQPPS

NOS1, P29475 = biological target: NOS1, P29475
Chain of NOS1, P29475 (P29475 9-101): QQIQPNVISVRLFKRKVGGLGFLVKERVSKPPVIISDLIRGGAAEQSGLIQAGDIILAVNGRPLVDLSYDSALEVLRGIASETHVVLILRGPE

LNX2_2, Q8N448 = biological target: T10, LNX2_2, Q8N448
T10 sequence (Q8N448 334-432, limits assumed, looked up): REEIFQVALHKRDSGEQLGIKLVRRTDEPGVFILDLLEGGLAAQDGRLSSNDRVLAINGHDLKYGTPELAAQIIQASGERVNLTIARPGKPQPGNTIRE

LIMK2, P53671 = biological target: LIMK2, P53671
Chain of LIMK2, P53671 (P53671 143-248): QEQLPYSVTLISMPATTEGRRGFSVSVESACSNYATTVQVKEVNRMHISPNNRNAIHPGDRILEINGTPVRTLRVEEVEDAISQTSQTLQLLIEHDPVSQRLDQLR

LNX1_3, Q8TBB1 = biological target: LNX1_3, Q8TBB1
Chain of LNX1_3, Q8TBB1 (Q8TBB1 500-596): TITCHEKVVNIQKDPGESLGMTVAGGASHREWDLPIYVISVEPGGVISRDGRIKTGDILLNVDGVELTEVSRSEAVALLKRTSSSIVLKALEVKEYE

HTRA4, P83105 = biological target: T11, HTRA4, P83105
T11 sequence (P83105 378-476, limits assumed, looked up): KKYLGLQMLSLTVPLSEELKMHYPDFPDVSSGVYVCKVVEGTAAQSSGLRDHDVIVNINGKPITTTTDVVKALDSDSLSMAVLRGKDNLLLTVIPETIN

DVL3, Q92997 = biological target: T12, DVL3, Q92997
T12 sequence (Q92997 244-331, limits assumed, looked up): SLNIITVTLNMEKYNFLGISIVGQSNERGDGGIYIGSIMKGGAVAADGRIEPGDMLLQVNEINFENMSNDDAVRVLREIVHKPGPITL

DLG5_1, Q8TDM6 = biological target: DLG5_1, Q8TDM6
Chain of DLG5_1, Q8TDM6 (Q8TDM6 617-713): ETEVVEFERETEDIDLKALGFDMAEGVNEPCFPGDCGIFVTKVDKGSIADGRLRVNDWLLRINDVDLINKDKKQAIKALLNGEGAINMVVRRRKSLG

GRIP2_3, Q9C0E4 = biological target: GRIP2_3, Q9C0E4
Chain of GRIP2_3, Q9C0E4 (Q9C0E4 238-339): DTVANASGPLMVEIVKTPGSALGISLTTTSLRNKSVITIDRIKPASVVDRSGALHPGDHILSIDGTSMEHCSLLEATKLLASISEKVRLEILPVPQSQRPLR

GRID2IP_2, A4D2P6 = biological target: GRID2IP_2, A4D2P6
Chain of GRID2IP_2, A4D2P6 (A4D2P6 272-370): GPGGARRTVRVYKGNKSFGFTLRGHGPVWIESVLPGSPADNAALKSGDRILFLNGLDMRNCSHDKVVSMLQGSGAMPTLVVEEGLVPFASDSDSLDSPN

[1] = plain residues with an end cap or a label only (N-terminal biotin on a linker: (peg)3)
[2] = plain residues with an end cap or a label only (N-terminal biotin on a linker: ado-ado)
[3] = plain residues with an end cap or a label only (N-terminal biotin on a linker: ahx)

Chain of Inadl_3, Q8NI35 (Q8NI35 359-469): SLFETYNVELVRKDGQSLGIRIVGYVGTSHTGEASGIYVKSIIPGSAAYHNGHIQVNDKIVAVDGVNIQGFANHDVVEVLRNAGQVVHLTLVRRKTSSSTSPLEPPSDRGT

B1: WNV-NS5, Q9Q6P4 (peptide)
chain: RYEDTTLVEDTVL
- pKd (Inadl_3, Q8NI35; [1]): 3.82
- pKd (LNX2_3, Q8N448; [1]): below the threshold
- pKd (NHERF4_2, Q86UT5; [1]): below the threshold
- pKd (SNX27, Q96L92; [1]): 5.38
- pKd (CARD11, Q9BXL7; [1]): below the threshold
- pKd (GRIP1_4, Q9Y3R0; [1]): below the threshold
- pKd (ARHGEF11, O15085; [1]): 3.99
- pKd (PARD3_3, Q8TEW0; [1]): 4.53
- pKd (PDZD2_2, O15018; [1]): 4.42
- pKd (GRIP2_6, Q9C0E4; [1]): below the threshold
- pKd (PTPN13_1, Q12923; [1]): below the threshold
- pKd (PDZRN3_1, Q9UPQ7; [1]): 3.61
- pKd (FRMPD1, Q5SYB0; [1]): below the threshold
- pKd (MAGI2_5, Q86UL8; [1]): below the threshold
- pKd (MAGI1_2, Q96QZ7; [1]): below the threshold
- pKd (RAPGEF6, Q8TEU7; [1]): below the threshold
- pKd (GORASP1, Q9BQQ3; [1]): 3.77
- pKd (NOS1, P29475; [1]): 3.64
- pKd (LNX2_2, Q8N448; [1]): below the threshold
- pKd (LIMK2, P53671; [1]): below the threshold
- pKd (LNX1_3, Q8TBB1; [1]): below the threshold
- pKd (HTRA4, P83105; [1]): below the threshold
- pKd (DVL3, Q92997; [1]): below the threshold
- pKd (DLG5_1, Q8TDM6; [1]): below the threshold
- pKd (GRIP2_3, Q9C0E4; [1]): below the threshold
- pKd (GRID2IP_2, A4D2P6; [1]): 3.72

B2: KCNJ4, P48050 (peptide)
chain: NISYRRESAI
- pKd (Inadl_3, Q8NI35; [2]): below the threshold
- pKd (LNX2_3, Q8N448; [2]): below the threshold
- pKd (NHERF4_2, Q86UT5; [2]): below the threshold
- pKd (SNX27, Q96L92; [2]): below the threshold
- pKd (CARD11, Q9BXL7; [2]): below the threshold
- pKd (GRIP1_4, Q9Y3R0; [2]): below the threshold
- pKd (ARHGEF11, O15085; [2]): below the threshold
- pKd (PARD3_3, Q8TEW0; [2]): below the threshold
- pKd (PDZD2_2, O15018; [2]): 4.36
- pKd (GRIP2_6, Q9C0E4; [2]): below the threshold
- pKd (PTPN13_1, Q12923; [2]): below the threshold
- pKd (PDZRN3_1, Q9UPQ7; [2]): 4.43
- pKd (FRMPD1, Q5SYB0; [2]): below the threshold
- pKd (MAGI2_5, Q86UL8; [2]): below the threshold
- pKd (MAGI1_2, Q96QZ7; [2]): 3.89
- pKd (RAPGEF6, Q8TEU7; [2]): below the threshold
- pKd (GORASP1, Q9BQQ3; [2]): below the threshold
- pKd (NOS1, P29475; [2]): 3.62
- pKd (LNX2_2, Q8N448; [2]): below the threshold
- pKd (LIMK2, P53671; [2]): below the threshold
- pKd (LNX1_3, Q8TBB1; [2]): below the threshold
- pKd (HTRA4, P83105; [2]): below the threshold
- pKd (DVL3, Q92997; [2]): below the threshold
- pKd (DLG5_1, Q8TDM6; [2]): below the threshold
- pKd (GRIP2_3, Q9C0E4; [2]): below the threshold
- pKd (GRID2IP_2, A4D2P6; [2]): 3.51

B3: ABCA1, O95477 (peptide)
chain: QDEKVKESYV
- pKd (Inadl_3, Q8NI35; [3]): 3.75
- pKd (LNX2_3, Q8N448; [3]): 3.63
- pKd (NHERF4_2, Q86UT5; [3]): below the threshold
- pKd (SNX27, Q96L92; [3]): 5.63
- pKd (CARD11, Q9BXL7; [3]): below the threshold
- pKd (GRIP1_4, Q9Y3R0; [3]): below the threshold
- pKd (ARHGEF11, O15085; [3]): 4.3
- pKd (PARD3_3, Q8TEW0; [3]): below the threshold
- pKd (PDZD2_2, O15018; [3]): 5.66
- pKd (GRIP2_6, Q9C0E4; [3]): below the threshold
- pKd (PTPN13_1, Q12923; [3]): below the threshold
- pKd (PDZRN3_1, Q9UPQ7; [3]): 4.31
- pKd (FRMPD1, Q5SYB0; [3]): below the threshold
- pKd (MAGI2_5, Q86UL8; [3]): 4.58
- pKd (MAGI1_2, Q96QZ7; [3]): 4.03
- pKd (RAPGEF6, Q8TEU7; [3]): below the threshold
- pKd (GORASP1, Q9BQQ3; [3]): 3.66
- pKd (NOS1, P29475; [3]): 3.66
- pKd (LNX2_2, Q8N448; [3]): 3.64
- pKd (LIMK2, P53671; [3]): below the threshold
- pKd (LNX1_3, Q8TBB1; [3]): below the threshold
- pKd (HTRA4, P83105; [3]): below the threshold
- pKd (DVL3, Q92997; [3]): 3.7
- pKd (DLG5_1, Q8TDM6; [3]): below the threshold
- pKd (GRIP2_3, Q9C0E4; [3]): below the threshold
- pKd (GRID2IP_2, A4D2P6; [3]): 3.97

B4: KCNJ18, B7U540 (peptide)
chain: QRPYRRGSEI
- pKd (Inadl_3, Q8NI35; [2]): below the threshold
- pKd (LNX2_3, Q8N448; [2]): below the threshold
- pKd (NHERF4_2, Q86UT5; [2]): below the threshold
- pKd (SNX27, Q96L92; [2]): below the threshold
- pKd (CARD11, Q9BXL7; [2]): below the threshold
- pKd (GRIP1_4, Q9Y3R0; [2]): below the threshold
- pKd (ARHGEF11, O15085; [2]): below the threshold
- pKd (PARD3_3, Q8TEW0; [2]): below the threshold
- pKd (PDZD2_2, O15018; [2]): 4.79
- pKd (GRIP2_6, Q9C0E4; [2]): below the threshold
- pKd (PTPN13_1, Q12923; [2]): below the threshold
- pKd (PDZRN3_1, Q9UPQ7; [2]): below the threshold
- pKd (FRMPD1, Q5SYB0; [2]): below the threshold
- pKd (MAGI2_5, Q86UL8; [2]): below the threshold
- pKd (MAGI1_2, Q96QZ7; [2]): below the threshold
- pKd (RAPGEF6, Q8TEU7; [2]): below the threshold
- pKd (GORASP1, Q9BQQ3; [2]): below the threshold
- pKd (NOS1, P29475; [2]): 3.56
- pKd (LNX2_2, Q8N448; [2]): below the threshold
- pKd (LIMK2, P53671; [2]): below the threshold
- pKd (LNX1_3, Q8TBB1; [2]): below the threshold
- pKd (HTRA4, P83105; [2]): below the threshold
- pKd (DVL3, Q92997; [2]): below the threshold
- pKd (DLG5_1, Q8TDM6; [2]): below the threshold
- pKd (GRIP2_3, Q9C0E4; [2]): below the threshold
- pKd (GRID2IP_2, A4D2P6; [2]): 3.71
